From US20220177587A1, “METHODS AND USES OF VARIANT CD80 FUSION PROTEINS AND RELATED CONSTRUCTS” (Alpine Immune Sciences, Inc., priority 2018, published 2022)
Substitutions are numbered along the chain they refer to. Numbers in names are those of the source. Where “and” joins values, the source holds several entries; their conditions need not be identical. Equal entries are not always repeated.

B1: V22A, R29D, Y31L, Q33H, K36G, M38I, T41A, M43R, M47T, E81V, L85R, K89N, A91T, F92P, K93V, R94L, V68M, T130A (protein)
chain: VIHVTKEVKEVATLSCGHNVSAEELAQTDILWHKEGKIVLAMRSGDTNIWPEYKNRTIFDITNNLSIMILALRPSDEGTYVCVVRKYENDTPVLEHLAEVTLSVKADFPTPSISDFEIPTSNIRRIICSASGGFPEPHLSWLENGEELNAINTTVSQDPETELYAVSSKLDFNMTTNHSFMCLIKYGHLRVNQTFNWNTTKQEHFPDN
B2: R29D, Y31L, Q33H, K36G, M38I, T41A, M43R, M47T, E81V, L85R, K89N, A91T, F92P, K93V, R94F, N64S, I118T, T130A, N149S, K169I (protein)
chain: B1 chain with A22V, N64S, M68V, L94F, I118T, N149S, K169I
B3: A91G, S129P (protein)
chain: VIHVTKEVKEVATLSCGHNVSVEELAQTRIYWQKEKKMVLTMMSGDMNIWPEYKNRTIFDITNNLSIVILALRPSDEGTYECVVLKYEKDGFKREHLAEVTLSVKADFPTPSISDFEIPTSNIRRIICPTSGGFPEPHLSWLENGEELNAINTTVSQDPETELYAVSSKLDFNMTTNHSFMCLIKYGHLRVNQTFNWNTTKQEHFPDN
B4: I69T, L70Q, A91G, T120S (protein)
chain: B3 chain with I69T, L70Q, T120S, P129S
modifications: CD80 v105 ECD
B5: Y31H, S129P (protein)
chain: B3 chain with Y31H, G91A
modifications: CD80 v106 ECD
B6: T28A, R29D, Y31L, Q33H, K36G, M38I, T41A, M43R, M47T, E81V, L85R, K89N, A91T, F92P, K93V, R94L, V104L, T130A, N149S (protein)
chain: B1 chain with A22V, T28A, M68V, V104L, N149S
B7: H18L, R29D, Y31L, Q33H, K36G, M38I, T41A, M43R, M47T, E81V, L85R, K89N, A91T, F92P, K93V, R94L, L97R, N149S, H188Q (protein)
chain: B1 chain with H18L, A22V, M68V, L97R, A130T, N149S, H188Q
B8: R29D, Y31L, Q33H, K36G, M38I, T41A, M43R, M47T, E81V, L85R, K89N, A91T, F92P, K93V, R94L, I118V, T120S, T130A, K169E, M174T (protein)
chain: B1 chain with A22V, M68V, I118V, T120S, K169E, M174T
B9: H18L, R29D, Y31L, Q33H, K36G, M38I, T41A, M43R, M47T, E81V, L85R, K89N, A91T, F92P, K93V, R94L, L97R, T130A, N149S (protein, UniProt P33681 35-288, looked up, variant H18L R29D Y31L Q33H K36G M38I T41A M43R M47T E81V L85R K89N A91T F92P K93V R94L L97R T130A N149S)
T-lymphocyte activation …: VIHVTKEVKEVATLSCGLNVSVEELAQTDILWHKEGKIVLAMRSGDTNIWPEYKNRTIFDITNNLSIVILALRPSDEGTYVCVVRKYENDTPVLEHRAEVTLSVKADFPTPSISDFEIPTSNIRRIICSASGGFPEPHLSWLENGEELSAINTTVSQDPETELYAVSSKLDFNMTTNHSFMCLIKYGHLRVNQTFNWNTTKQEHFPDNLLPSWAITLISVNGIFVICCLTYCFAPRCRERRRNERLRRESVRPV
B10: R29D, Y31L, Q33H, K36G, M38I, T41A, M43R, M47T, E81V, L85R, K89N, A91T, F92P, K93V, R94L, H18L, V68A, T130A, N149S, T154I (protein)
chain: B1 chain with H18L, A22V, M68A, N149S, T154I
B11: R29D, Y31L, Q33H, K36G, M38I, T41A, M43R, M47T, E81V, L85R, K89N, A91T, F92P, K93V, R94L, I118T, T130A, N149S, K169I, Q193L (protein)
chain: B1 chain with A22V, M68V, I118T, N149S, K169I, Q193L
B12: R29D, Y31L, Q33H, K36G, M38I, T41A, M43R, M47T, E81V, L85R, K89N, A91T, F92P, K93V, R94L, V22A, I118T, T130A, N149S (protein)
chain: B1 chain with M68V, I118T, N149S
B13: R29D, Y31L, Q33H, K36G, M38I, T41A, M43R, M47T, E81V, L85R, K89N, A91T, F92P, K93V, R94L, I118T, T130A, N149S (protein)
chain: B1 chain with A22V, M68V, I118T, N149S
B14: R29D, Y31L, Q33H, K36G, M38I, T41A, M43R, M47T, E81V, L85R, K89N, A91T, F92P, K93V, R94L, I118T, T130A, N149S, K169I (protein)
chain: B1 chain with A22V, M68V, I118T, N149S, K169I
B15: R29D, Y31L, Q33H, K36G, M38I, T41A, M43R, M47T, E81V, L85R, K89N, A91T, F92P, K93V, R94F, T130A, N149S, K169I (protein)
chain: B1 chain with A22V, M68V, L94F, N149S, K169I
B16: I118T, C128R (protein)
chain: B3 chain with G91A, I118T, C128R, P129S
modifications: CD80 v118 ECD
B17: Q27R, R29C, M42T, S129P, E160G (protein)
chain: B3 chain with Q27R, R29C, M42T, G91A, E160G
modifications: CD80 v119 ECD
B18: S129P, T154A (protein)
chain: B3 chain with G91A, T154A
B19: R29D, Y31L, Q33H, K36G, M38I, T41A, M43R, M47T, N48D, F59L, E81V, L85R, K89N, A91T, F92P, K93V, R94L, I118V, T120S, I127T, T130A, H188D (protein)
chain: B1 chain with A22V, N48D, F59L, M68V, I118V, T120S, I127T, H188D
B20: H18R, R29D, Y31L, Q33H, K36G, K37E, M38I, T41A, M43R, M47T, L70Q, E81V, L85R, K89N, A91T, F92P, K93V, R94L, I118V, T120S, T130A, K169E, H188D (protein)
chain: B1 chain with H18R, A22V, K37E, M68V, L70Q, I118V, T120S, K169E, H188D
B21: R29D, Y31L, Q33H, K36G, M38I, T41A, M43R, M47T, L70Q, E81V, L85R, K89N, A91T, F92P, K93V, R94L, I118V, T120S, I127T, T130A, E143G, K169E, M174V, H188D (protein)
chain: B1 chain with A22V, M68V, L70Q, I118V, T120S, I127T, E143G, K169E, M174V, H188D
B22: R29D, I30V, Y31L, Q33H, K36G, M38I, T41A, M43R, M47T, E81V, L85R, K89N, A91T, F92P, K93V, R94L, I118V, T120S, I127T, T130A, H188D (protein)
chain: B1 chain with A22V, I30V, M68V, I118V, T120S, I127T, H188D
B23: R29D, Y31L, Q33H, K36G, M38I, T41A, M43R, M47T, L70Q, E81V, L85R, K89N, A91T, F92P, K93V, R94L, I118V, T120S, I127T, T130A, K169E (protein)
chain: B1 chain with A22V, M68V, L70Q, I118V, T120S, I127T, K169E

Test system: human pan T cells
Experiment: Anti-CD3 coimmobilization assay, IFN-gamma
Type: cell-based
Settings: Table E34; culture supernatant, 3 days
Protocol: Costimulatory bioactivity of CD80 fusion variants was determined in anti-CD3 coimmobilization assays. 1 nM or 4 nM mouse anti-human CD3 (OKT3, Biolegends, USA) was diluted in PBS with 1 nM to 80 nM rCD80.Fc variant proteins. This mixture was added to tissue culture treated flat bottom 96-well plates (Corning, USA) overnight to facilitate adherence of the stimulatory proteins to the wells of the plate. The next day, unbound protein was washed off the plates and 100,000 purified human pan T cells (BenTech Bio, US) or human T cell clone BC3 (Astarte Biologics, USA) were added to each well in a final volume of 200 μl of Ex-Vivo 15 media (Lonza, Switzerland). Cells were cultured 3 days before harvesting culture supernatants and measuring human IFN-gamma levels with Duoset ELISA kit (R&D Systems, USA) as described above.

Molecule	Anti-CD3 IFN-gamma Coimmobilization Assay
B1	96 pg/mL
B2	30 pg/mL
B3	0 pg/mL
B4	509 pg/mL
B5	76 pg/mL
B6	116 pg/mL
B7	125 pg/mL
B8	141 pg/mL
B9	96 pg/mL
B10	132 pg/mL
B11	130 pg/mL
B12	124 pg/mL
B13	89 pg/mL
B14	101 pg/mL
B15	114 pg/mL
B16	122 pg/mL
B17	139 pg/mL
B18	156 pg/mL
B19	230 pg/mL
B20	305 pg/mL
B21	291 pg/mL
B22	127 pg/mL and 237 pg/mL
B23	203 pg/mL
